Source: patent publication US20250376539A1 (KIRA PHARMACEUTICALS SUZHOU, published 2025)

How the values were obtained:
[1] = target: T1, recombinant human complement C2 (NP_000054.2), C-terminal 6His-tag, made in house (CHO cell expression) (human, UniProt P06681 21-752); experiment: ELISA
T1 construct: a linker before the tag is not described; also called human C2; Human C2
T1 sequence: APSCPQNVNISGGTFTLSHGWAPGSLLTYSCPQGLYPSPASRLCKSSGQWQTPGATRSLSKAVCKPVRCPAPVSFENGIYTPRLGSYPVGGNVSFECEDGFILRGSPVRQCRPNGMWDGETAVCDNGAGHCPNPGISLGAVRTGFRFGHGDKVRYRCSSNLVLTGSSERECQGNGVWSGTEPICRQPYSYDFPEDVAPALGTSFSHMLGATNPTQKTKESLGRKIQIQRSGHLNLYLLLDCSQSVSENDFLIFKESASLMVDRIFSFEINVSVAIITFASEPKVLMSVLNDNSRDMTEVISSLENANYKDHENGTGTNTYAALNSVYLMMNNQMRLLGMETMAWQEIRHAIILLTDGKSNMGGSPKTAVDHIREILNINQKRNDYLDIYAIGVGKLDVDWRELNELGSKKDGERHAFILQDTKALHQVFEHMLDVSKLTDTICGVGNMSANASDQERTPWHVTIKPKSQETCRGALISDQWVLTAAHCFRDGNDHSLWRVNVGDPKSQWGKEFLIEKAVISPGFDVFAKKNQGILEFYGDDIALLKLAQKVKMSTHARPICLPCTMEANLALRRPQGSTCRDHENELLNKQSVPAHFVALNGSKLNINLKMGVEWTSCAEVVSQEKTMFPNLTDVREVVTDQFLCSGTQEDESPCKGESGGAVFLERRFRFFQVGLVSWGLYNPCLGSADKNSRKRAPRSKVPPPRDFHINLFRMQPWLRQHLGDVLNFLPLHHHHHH

[2] = target: T1, recombinant human complement C2 …; experiment: BLI (Gator); ratio of dissociation at pH 5.8 to pH 7.4
Experimental: (§1) The histidine mutant constructs in Table 4 were tested for their pH-dependent dissociation from human C2. Probe-immobilized anti-C2 antibodies were incubated with C2 at pH 7.4 for 600s, followed by a 600s dissociation period in K Buffer at pH 7.4 or pH 5.8. The data were processed and analyzed by the Gator evaluation software.
(§2) Non-fusion mAb were used for comparison.

[3] = target: T2, recombinant cynomolgus (cyno) complement C2 (XP_005553508.1), C-terminal 6His-tag, made in house (CHO cell … (cynomolgus monkey (Macaca fascicularis), UniProt P06681 21-752 (human entry))); experiment: as above
T2 construct: also called cyno C2; Cyno C2
T2 chain: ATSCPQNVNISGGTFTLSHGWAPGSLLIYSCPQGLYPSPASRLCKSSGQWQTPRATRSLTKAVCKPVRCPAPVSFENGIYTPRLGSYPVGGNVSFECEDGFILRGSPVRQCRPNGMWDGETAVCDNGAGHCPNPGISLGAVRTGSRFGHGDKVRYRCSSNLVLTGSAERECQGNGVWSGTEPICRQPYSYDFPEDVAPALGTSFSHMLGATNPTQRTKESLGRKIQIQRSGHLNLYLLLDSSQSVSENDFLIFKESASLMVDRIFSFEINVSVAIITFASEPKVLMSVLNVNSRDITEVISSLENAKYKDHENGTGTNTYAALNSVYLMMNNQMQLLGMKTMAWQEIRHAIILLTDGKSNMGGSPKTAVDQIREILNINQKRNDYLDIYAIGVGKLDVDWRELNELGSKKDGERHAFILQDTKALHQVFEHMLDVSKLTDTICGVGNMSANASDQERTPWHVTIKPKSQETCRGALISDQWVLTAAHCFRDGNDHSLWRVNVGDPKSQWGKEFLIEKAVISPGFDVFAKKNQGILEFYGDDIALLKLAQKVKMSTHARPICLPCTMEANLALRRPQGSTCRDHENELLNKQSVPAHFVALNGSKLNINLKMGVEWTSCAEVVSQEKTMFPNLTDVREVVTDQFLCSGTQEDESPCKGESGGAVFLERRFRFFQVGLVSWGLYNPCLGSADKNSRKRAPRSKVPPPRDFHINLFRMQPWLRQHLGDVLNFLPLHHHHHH
Experimental: as §1, §2

[4] = target: T1, recombinant human complement C2 …; experiment: BLI (Gator), antibody on probe; 600 s association at pH 7.4, 600 s dissociation at pH 7.4
Experimental: as §1

[5] = target: T1, recombinant human complement C2 …; experiment: BLI (Gator), antibody on probe; 600 s association at pH 7.4, 600 s dissociation at pH 5.8
Experimental: as §1, §2

[6] = target: T2, recombinant cynomolgus (cyno) …; experiment: as above
Experimental: as §1, §2

[7] = target: T3, recombinant human C2a, C-terminal 6His-tag, made in house (CHO cell expression) (human, UniProt P06681 244-752); experiment: ELISA
T3 sequence: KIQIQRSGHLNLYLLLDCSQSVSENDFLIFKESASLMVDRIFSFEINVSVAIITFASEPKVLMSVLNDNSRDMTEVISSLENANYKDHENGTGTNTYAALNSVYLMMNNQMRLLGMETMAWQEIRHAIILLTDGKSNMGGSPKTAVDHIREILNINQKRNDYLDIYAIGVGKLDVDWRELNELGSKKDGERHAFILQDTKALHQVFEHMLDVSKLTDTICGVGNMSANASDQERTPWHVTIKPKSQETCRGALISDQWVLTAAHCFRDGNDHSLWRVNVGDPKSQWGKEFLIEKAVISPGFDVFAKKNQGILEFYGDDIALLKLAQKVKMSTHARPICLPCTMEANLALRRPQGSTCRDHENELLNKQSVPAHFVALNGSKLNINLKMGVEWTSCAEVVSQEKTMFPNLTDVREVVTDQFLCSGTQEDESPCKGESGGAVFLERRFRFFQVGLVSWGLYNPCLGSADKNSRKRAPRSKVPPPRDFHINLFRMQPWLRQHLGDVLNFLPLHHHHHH

B1: anti-C2 antibody 3.2 (antibody, IgG4, V domains shown)
VH: EVQLLESGGGLVQPGGSLRLSCAASGFTFRHYAMSWVRQAPGKGLEWVSLISGSGASTFYADSVKGRFTISRDNSENMLYLQMNSLRAEDTAVYYCAKDSLAVAGSEYFQHWGQGTLVTVSS
VL: SYVLTQAPSVSVAPGQTARITCGGNYFGGKSVHWYQQRPGQAPVLVVYDDSDRPSGIPERFSGSKSGNTATLAISRVEAGDEAAYYCQVYDTSSDHWVFGGGTKLTVL
notes: Recombinant; also called WT; "WT" 3.2
EC50 [1]: 0.0504 nM
Fold dissociation pH 5.8/pH 7.4 [2]: 1.97 fold
Fold dissociation pH 5.8/pH 7.4 [3]: 2.7 fold
Dissociation (%) pH 7.4 [4]: 3.59%
Dissociation (%) pH 5.8 [5]: 10.4%
Dissociation (%) pH 5.8 [6]: 14.5%

B2: anti-C2 antibody 69.44 (antibody, IgG4, V domains shown)
VH: QVQLVQSGAEVKKPGASVKVSCKASGYSFTTYYMYWVRQAPGQGLEWMGIITPSGGSTTYAQKFQDRVTMTRDASTTTVYMELSSLRSEDTAVYYCARGYEGSYGFDHWGQGTLVTVSS
VL: SYELTQPPSVSLSPGQTASITCSGDKLGNKYTCWYQQKPGQSPVLVIYQDNKRPSGIPERFSGSNSGNTATLTISGTQAMDEADYYCQTWDSSTAVFGGGTKLTVL
notes: Recombinant
EC50 [1]: 0.0474 nM
EC50 [7]: 0.117 nM
Fold dissociation pH 5.8/pH 7.4 [2]: 0.78 fold
Fold dissociation pH 5.8/pH 7.4 [3]: 1.5 fold
Dissociation (%) pH 5.8 [5]: 2.45%
Dissociation (%) pH 5.8 [6]: 7.22%
